Measured values reported in the RNAGym collection of RNA variant scans (doi:10.7554/elife.80360).

B1: HDV Ribozyme (parent)
chain: GGCCGGCAUGGUCCCAGCCUCCUCGCUGGCGCCGGCUGGGCAACAUUCCGAGGGGACCGUCCCCUCGGUAAUGGCGAAUGGGACCCA

Variants of: B1
Test: self-cleavage, relative activity (ratio to wild type); higher = more cleavage; co-transcriptional

**Q.** For GGCCGGCAUGGUCCCAGCCUCUUCGCUGGCGCCGGCUGGGCAACAUUCCGAGGGGACCAUCCCCUCGGUAAUGGCGAAUGGGACCCA [C22U G59A], which self-cleavage is on record?
**A.** 0.675

**Q.** Which self-cleavage does the source give for GGCCGGCAUGGUCCCAGCCUCUUCGCUGGCGCCGGCUGGGCAACAUUCCGAGGGGACCUUCCCCUCGGUAAUGGCGAAUGGGACCCA [C22U G59U] here?
**A.** 0.858

**Q.** Which self-cleavage does the source give for GGCCGGCAUGGUCCCAGCCUCUUCGCUGGCGCCGGCUGAGCAACAUUCCGAGGGGACCGUCCCCUCGGUAAUGGCGAAUGGGACCCA [C22U G39A] here?
**A.** 0.185

**Q.** For GGCCGGCAUGGUCCCAGCCUCUUCGCUGGCGCCGGCUGGGCAACAUUCCGAGGGGACCGUCCCCUCGGUAAUGGUGAAUGGGACCCA [C22U C75U], which self-cleavage is on record?
**A.** 0.214

**Q.** With GGCCGGCAUGGUCCCAGCCUCUUCGCUGGCGCCGGCUGGGCAACAUUCCGAGGGGACCGUCCCCUCGGUAAUGGAGAAUGGGACCCA [C22U C75A] as the variant, how does the self-cleavage read?
**A.** 0.0282

**Q.** Which self-cleavage does the source give for GGCCGGCAUGGUCCCAGCCUCUUCGCUGGCGCCGGCUGGGCAACAUUCCGACGGGACCGUCCCCUCGGUAAUGGCGAAUGGGACCCA [C22U G52C] here?
**A.** 0.635

**Q.** For GGCCGGCAUGGUCCCAGCCUCUUCCCUGGCGCCGGCUGGGCAACAUUCCGAGGGGACCGUCCCCUCGGUAAUGGCGAAUGGGACCCA [C22U G25C], which self-cleavage is on record?
**A.** 0.0852

**Q.** With GGCCGGCAUGGUCCCAGCCUCUUCGCUGGCGCCCGCUGGGCAACAUUCCGAGGGGACCGUCCCCUCGGUAAUGGCGAAUGGGACCCA [C22U G34C] as the variant, how does the self-cleavage read?
**A.** 0.0852

**Q.** For GGCCGGCAUGGUCCCAGCCUCUUCGCUGGCGCCAGCUGGGCAACAUUCCGAGGGGACCGUCCCCUCGGUAAUGGCGAAUGGGACCCA [C22U G34A], which self-cleavage is on record?
**A.** 0.0468

**Q.** With GGCCGGCAUGGUCCCAGCCUCUUCGCUGGCGCCGGCUGGGCAACAUUCCUAGGGGACCGUCCCCUCGGUAAUGGCGAAUGGGACCCA [C22U G50U] as the variant, how does the self-cleavage read?
**A.** 0.521

**Q.** With GGCCGGCAUGGUCCCAGCCUCUUCGCUGGCGCCGGCUGGGCAACAUUCCGAGGGGACCGUCCCCUCGGUAAUGGCGAAUGGGAUCCA [C22U C84U] as the variant, how does the self-cleavage read?
**A.** 0.29

**Q.** For GGCCGGCAUGGUCCCAGCCUCUUCGCUGGCGCCGGCUGGGCAACAUUCCGAGGGGACCGUCGCCUCGGUAAUGGCGAAUGGGACCCA [C22U C62G], which self-cleavage is on record?
**A.** 0.431

**Q.** With GGCCGGCAUGGUCCCAGCCUCUUCGCUGGCGCCGGCUGGGCAACAUUCCGAGGGGACCGUCACCUCGGUAAUGGCGAAUGGGACCCA [C22U C62A] as the variant, how does the self-cleavage read?
**A.** 0.623

**Q.** With GGCCGGCAUGGUCCCAGCCUCUUCGCUGGCGCCGGCUGGGCAACAUUCCGAGGGAACCGUCCCCUCGGUAAUGGCGAAUGGGACCCA [C22U G55A] as the variant, how does the self-cleavage read?
**A.** 0.717

**Q.** Which self-cleavage does the source give for GGCCGGCAUGGUCCCAGCCUCUUCGCUGGCGCCGGCUCGGCAACAUUCCGAGGGGACCGUCCCCUCGGUAAUGGCGAAUGGGACCCA [C22U G38C] here?
**A.** 0.122

**Q.** Which self-cleavage does the source give for GGCCGGCAUGGUCCCAGCCUCUUCGCUGGCGCCGGCUAGGCAACAUUCCGAGGGGACCGUCCCCUCGGUAAUGGCGAAUGGGACCCA [C22U G38A] here?
**A.** 0.931

**Q.** With GGCCGGCAUGGUCCCAGCCUCUUCGCUGGCGCCGGCUGGGCAACAUUCCGAGGAGACCGUCCCCUCGGUAAUGGCGAAUGGGACCCA [C22U G54A] as the variant, how does the self-cleavage read?
**A.** 0.709

**Q.** For GGCCGGCAUGGUCCCAGCCUCUUCGCUGGCGCCGGCUGGGCAACAUUCCGAGGCGACCGUCCCCUCGGUAAUGGCGAAUGGGACCCA [C22U G54C], which self-cleavage is on record?
**A.** 0.641

**Q.** Which self-cleavage does the source give for GGCCGGCAUGGUCCCAGCCUCUUCGCUGGCGCCGGCUGGGCAACAUUCCGAGGGGACCGUCCCCUCGGUAAUGGCGAAUGGGACCAA [C22U C86A] here?
**A.** 0.779

**Q.** With GGCCGGCAUGGUCCCAGCCUCUUCGCUGGCGCCGGCUGGGCAACAUUCCGAGGGGACCGUUCCCUCGGUAAUGGCGAAUGGGACCCA [C22U C61U] as the variant, how does the self-cleavage read?
**A.** 0.62

**Q.** For GGCCGGCAUGGUCCCAGCCUCUUCGCUGGCGCCGGCUGGGCAACAUUCCGAGGGGACCGUCCCUUCGGUAAUGGCGAAUGGGACCCA [C22U C64U], which self-cleavage is on record?
**A.** 0.892

**Q.** With GGCCGGCAUGGUCCCAGCCUCUUCGCUGGCGCCGGCUGGGCAACAUUCCGAGGGGACCGUCCCCUCGCUAAUGGCGAAUGGGACCCA [C22U G68C] as the variant, how does the self-cleavage read?
**A.** 0.345

**Q.** For GGCCGGCAUGGUCCCAGCCUCUUCGCUGGCGCCGGCUGGGCAACAUUCCGAGGGGACCGUCCCCUCGUUAAUGGCGAAUGGGACCCA [C22U G68U], which self-cleavage is on record?
**A.** 0.572

**Q.** With GGCCGGCAUGGUCCCAGCCUCUUCGCUGGCGCCGGCUGGGCAACAUUCCGAGGGGACCGUCCACUCGGUAAUGGCGAAUGGGACCCA [C22U C63A] as the variant, how does the self-cleavage read?
**A.** 0.697

**Q.** Which self-cleavage does the source give for GGCCGGCAUGGUCCCAGCCUCUUCGCUGCCGCCGGCUGGGCAACAUUCCGAGGGGACCGUCCCCUCGGUAAUGGCGAAUGGGACCCA [C22U G29C] here?
**A.** 0.0405

**Q.** With GGCCGGCAUGGUCCCAGCCUCUUCGCUGGCGCCGGCUGGGCAACAUUCCGAGGGGACCGUCCCCUCGGUAAUGGCGAAUGGGACUCA [C22U C85U] as the variant, how does the self-cleavage read?
**A.** 0.577

**Q.** For GGCCGGCAUGGUCCCAGCCUCUUCGCUGGCGCCGGCUGGGCAACAUUCCGAGGGGACCGUCCCCUAGGUAAUGGCGAAUGGGACCCA [C22U C66A], which self-cleavage is on record?
**A.** 0.758

**Q.** For GGCCGGCAUGGUCCCAGCCUCUUCGCUGGCUCCGGCUGGGCAACAUUCCGAGGGGACCGUCCCCUCGGUAAUGGCGAAUGGGACCCA [C22U G31U], which self-cleavage is on record?
**A.** 0.0817

**Q.** With GGCCGGCAUGGUCCCAGCCUCUUCGCUGGCCCCGGCUGGGCAACAUUCCGAGGGGACCGUCCCCUCGGUAAUGGCGAAUGGGACCCA [C22U G31C] as the variant, how does the self-cleavage read?
**A.** 0

**Q.** For GGCCGGCAUGGUCCCAGCCUCUUCGCUGGCGCCGUCUGGGCAACAUUCCGAGGGGACCGUCCCCUCGGUAAUGGCGAAUGGGACCCA [C22U G35U], which self-cleavage is on record?
**A.** 0.0511

**Q.** Which self-cleavage does the source give for GGCCGGCAUGGUCCCAGCCUCUUCGCUGGCGCCGACUGGGCAACAUUCCGAGGGGACCGUCCCCUCGGUAAUGGCGAAUGGGACCCA [C22U G35A] here?
**A.** 0.109

**Q.** Which self-cleavage does the source give for GGCCGGCAUGGUCCCAGCCUCUUCGCUGGCGCCGCCUGGGCAACAUUCCGAGGGGACCGUCCCCUCGGUAAUGGCGAAUGGGACCCA [C22U G35C] here?
**A.** 0
